One series has as its target T1, AtMKK5-KD (Arabidopsis thaliana, UniProt Q8RXG3).
T1 construct: gene MKK5; kinase domain, residues 62-335, N-terminal His6-tag, pET28b, E. coli BL21(DE3); phosphorylated at Ser66, Thr83, Thr108, Thr215, Ser221
T1 sequence (Q8RXG3 62-335): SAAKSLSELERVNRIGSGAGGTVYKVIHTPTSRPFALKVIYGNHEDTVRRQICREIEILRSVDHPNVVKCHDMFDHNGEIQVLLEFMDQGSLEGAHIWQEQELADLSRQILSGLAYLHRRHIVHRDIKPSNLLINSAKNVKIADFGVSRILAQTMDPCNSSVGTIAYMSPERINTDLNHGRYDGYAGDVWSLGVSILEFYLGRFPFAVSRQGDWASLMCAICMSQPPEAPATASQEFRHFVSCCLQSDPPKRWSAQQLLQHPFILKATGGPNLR
Kind of series: PK/LDH-coupled NADH oxidation at […] nm (ATPase). The class given is biochemical. The settings on record: 1 mM ATP, 20 nM phosphorylated kinase domain; 10 mM MgCl2, pH 7.0, 25 °C.

For series [1], the target named is AtMPK6(K92M) (Arabidopsis thaliana) (UniProt Q39026).
Sequence of AtMPK6(K92M) (Arabidopsis thaliana) (Q39026 whole entry K92M): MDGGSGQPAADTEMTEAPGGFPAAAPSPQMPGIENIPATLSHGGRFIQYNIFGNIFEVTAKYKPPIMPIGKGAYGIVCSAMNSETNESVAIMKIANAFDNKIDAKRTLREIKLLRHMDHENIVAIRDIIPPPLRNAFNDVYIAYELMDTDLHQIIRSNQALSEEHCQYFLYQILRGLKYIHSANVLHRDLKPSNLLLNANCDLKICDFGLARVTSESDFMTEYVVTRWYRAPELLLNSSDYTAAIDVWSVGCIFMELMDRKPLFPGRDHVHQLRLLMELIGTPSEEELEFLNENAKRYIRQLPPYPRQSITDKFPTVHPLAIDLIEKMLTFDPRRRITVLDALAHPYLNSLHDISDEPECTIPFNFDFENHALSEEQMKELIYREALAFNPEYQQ
Substrate in the series “purified protein”: Nc1ncnc2c1ncn2[C@@H]1O[C@H](COP(=O)(O)OP(=O)(O)OP(=O)(O)O)[C@@H](O)[C@H]1O
Kind of series: purified protein. The settings on record: no protein substrate, 10 mM MgCl2, 50 mM MOPS pH 7.0, 100 mM NaCl, 25 °C, phosphorylated enzyme 20 nM. The class given is biochemical, Arabidopsis thaliana.

10 molecules from paper PMC9909325, “Crystal structure of the phosphorylated Arabidopsis MKK5 reveals activation mechanism of MAPK kinases” (Acta Biochimica et Biophysica Sinica, 2022) can be followed below.

Residue numbers refer to the chain shown, from its start. Numbers in names are those of the source.

A word on the Km: it is the concentration of substrate that gives half-maximal velocity. For orientation: kcat means the maximal rate divided by the concentration of active sites.

Take `Nc1ncnc2c1ncn2[C@@H]1O[C@H](COP(=O)(O)OP(=O)(O)OP(=O)(O)O)[C@@H](O)[C@H]1O` [ATP]: the “PK/LDH-coupled NADH oxidation at 340 nm (ATPase)” value on AtMKK5-KD is “examined their effects on the catalytic function of AtMKK5-KD”.

B1: AtMKK5 RRKR4A (full length; Arg17, Arg19, Lys20 and Arg21 all replaced by Ala) (enzyme)
chain: MKPIQSPSGVASPMKNALAAAPDLSLPLPHRDVALAVPLPLPPPSSSSSAPASSSAISTNISAAKSLSELERVNRIGSGAGGTVYKVIHTPTSRPFALKVIYGNHEDTVRRQICREIEILRSVDHPNVVKCHDMFDHNGEIQVLLEFMDQGSLEGAHIWQEQELADLSRQILSGLAYLHRRHIVHRDIKPSNLLINSAKNVKIADFGVSRILAQTMDPCNSSVGTIAYMSPERINTDLNHGRYDGYAGDVWSLGVSILEFYLGRFPFAVSRQGDWASLMCAICMSQPPEAPATASQEFRHFVSCCLQSDPPKRWSAQQLLQHPFILKATGGPNLRQMLPPPRPLPSAS
modifications: phosphorylated at Ser/Thr residues (signals similar to the wild type; sites not stated)
In series [1], B1 registered a decrease of AtMPK6(K92M) phosphorylation activity against wild-type AtMKK5, coupled spectrophotometric assay (20 nM AtMKK5, 1 mM ATP, 1 μM AtMPK6(K92M)) (fold decrease) of 25.

B2: AtMKK5 L26A (full length) (enzyme)
chain: B1 chain with A17R, A19R, A20K, A21R, L26A
modifications: phosphorylated at Ser/Thr residues (signals similar to the wild type; sites not stated)
With B2, the decrease of AtMPK6(K92M) phosphorylation activity against wild-type AtMKK5, coupled spectrophotometric assay (20 nM AtMKK5, 1 mM ATP, 1 μM AtMPK6(K92M)) (fold decrease) in series [1] stood at 10.

B3: AtMKK5 LLL3A (full length; Leu24, Leu26 and Leu28 all replaced by Ala) (enzyme)
chain: B1 chain with A17R, A19R, A20K, A21R, L24A, L26A, L28A
modifications: phosphorylated at Ser/Thr residues (signals similar to the wild type; sites not stated)
B3: the drop of the initial velocity of AtMPK6(K92M) phosphorylation against wild-type AtMKK5, coupled spectrophotometric assay (20 nM AtMKK5, 1 mM ATP, 1 μM AtMPK6(K92M)) (fold decrease) in series [1] amounted to 90.

B4: AtMKK5 R19A (full length) (enzyme)
chain: B1 chain with A17R, A20K, A21R
modifications: phosphorylated at Ser/Thr residues (signals similar to the wild type; sites not stated)
Regarding B4, the decrease of AtMPK6(K92M) phosphorylation activity against wild-type AtMKK5, coupled spectrophotometric assay (20 nM AtMKK5, 1 mM ATP, 1 μM AtMPK6(K92M)) (fold decrease) in series [1] is 3.

B5: AtMKK5 R21A (full length) (enzyme)
chain: B1 chain with A17R, A19R, A20K
modifications: phosphorylated at Ser/Thr residues (signals similar to the wild type; sites not stated)
In turn, B5 registered a decrease of AtMPK6(K92M) phosphorylation activity against wild-type AtMKK5, coupled spectrophotometric assay (20 nM AtMKK5, 1 mM ATP, 1 μM AtMPK6(K92M)) (fold decrease) in series [1] of 3.

B6: AtMKK5 L24A (full length) (enzyme)
chain: B1 chain with A17R, A19R, A20K, A21R, L24A
modifications: phosphorylated at Ser/Thr residues (signals similar to the wild type; sites not stated)
The molecule B6 registered a decrease of AtMPK6(K92M) phosphorylation activity against wild-type AtMKK5, coupled spectrophotometric assay (20 nM AtMKK5, 1 mM ATP, 1 μM AtMPK6(K92M)) (fold decrease) in series [1] of 10.

B7: AtMKK5 L28A (full length) (enzyme)
chain: B1 chain with A17R, A19R, A20K, A21R, L28A
modifications: phosphorylated at Ser/Thr residues (signals similar to the wild type; sites not stated)
Molecule B7 registered a decrease of AtMPK6(K92M) phosphorylation activity against wild-type AtMKK5, coupled spectrophotometric assay (20 nM AtMKK5, 1 mM ATP, 1 μM AtMPK6(K92M)) (fold decrease) in series [1] of 10.

B8: AtMKK5 (full-length, phosphorylated; p-AtMKK5) (Arabidopsis thaliana) (protein)
chain: B1 chain with A17R, A19R, A20K, A21R
notes: full-length (348 residues), N-terminal His6-tag, pET28b, E. coli BL21(DE3); phosphorylated at Ser/Thr as purified
Take B8: in the series “purified protein”, the Km stood at 96.2 ± 3.5 µM and the kcat is 1.96 ± 0.02 s⁻¹.

B9: AtMKK5 K20A (full length) (enzyme)
chain: B1 chain with A17R, A19R, A21R
modifications: phosphorylated at Ser/Thr residues (signals similar to the wild type; sites not stated)
On to B9, for which the decrease of AtMPK6(K92M) phosphorylation activity against wild-type AtMKK5, coupled spectrophotometric assay (20 nM AtMKK5, 1 mM ATP, 1 μM AtMPK6(K92M)) (fold decrease) in series [1] stood at 3.
